# Measured values published in patent publication US20170096474A1 (published 2017).
# T1: Botulinum neurotoxin type B, subtype B1 (BoNT/B1) (Clostridium botulinum, UniProt P10844 2-1291)
# T1 sequence: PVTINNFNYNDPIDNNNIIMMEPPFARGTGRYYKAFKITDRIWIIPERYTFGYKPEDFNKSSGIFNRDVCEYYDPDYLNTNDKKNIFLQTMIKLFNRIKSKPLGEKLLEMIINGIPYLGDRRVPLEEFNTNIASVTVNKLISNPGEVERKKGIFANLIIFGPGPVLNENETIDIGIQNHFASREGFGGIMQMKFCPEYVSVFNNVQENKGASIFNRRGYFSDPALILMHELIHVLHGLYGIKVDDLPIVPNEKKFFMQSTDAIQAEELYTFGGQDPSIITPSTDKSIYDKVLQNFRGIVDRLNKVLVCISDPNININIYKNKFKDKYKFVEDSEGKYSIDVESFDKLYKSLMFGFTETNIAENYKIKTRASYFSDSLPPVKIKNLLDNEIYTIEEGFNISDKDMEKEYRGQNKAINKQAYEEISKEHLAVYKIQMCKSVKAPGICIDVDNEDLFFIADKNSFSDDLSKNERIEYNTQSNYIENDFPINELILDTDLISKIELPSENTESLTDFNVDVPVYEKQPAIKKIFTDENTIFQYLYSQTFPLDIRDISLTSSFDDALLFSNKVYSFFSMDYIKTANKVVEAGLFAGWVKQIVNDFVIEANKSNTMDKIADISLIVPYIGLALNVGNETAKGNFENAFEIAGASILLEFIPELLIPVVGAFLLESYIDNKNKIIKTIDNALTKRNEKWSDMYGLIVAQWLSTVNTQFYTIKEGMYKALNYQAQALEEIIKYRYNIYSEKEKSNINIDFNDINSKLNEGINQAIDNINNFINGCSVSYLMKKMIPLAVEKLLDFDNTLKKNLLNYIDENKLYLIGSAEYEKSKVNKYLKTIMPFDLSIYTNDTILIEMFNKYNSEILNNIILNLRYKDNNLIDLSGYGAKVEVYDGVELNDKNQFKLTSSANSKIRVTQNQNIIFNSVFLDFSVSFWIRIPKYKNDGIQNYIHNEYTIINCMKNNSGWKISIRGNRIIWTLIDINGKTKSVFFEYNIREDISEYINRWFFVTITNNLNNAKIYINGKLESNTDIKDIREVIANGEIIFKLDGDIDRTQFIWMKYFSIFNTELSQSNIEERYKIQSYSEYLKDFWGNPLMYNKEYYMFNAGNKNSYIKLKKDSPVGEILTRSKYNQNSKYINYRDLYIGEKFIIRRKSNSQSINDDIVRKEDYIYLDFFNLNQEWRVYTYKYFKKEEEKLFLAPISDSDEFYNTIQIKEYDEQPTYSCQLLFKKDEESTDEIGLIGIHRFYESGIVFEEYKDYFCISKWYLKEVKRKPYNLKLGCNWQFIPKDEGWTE
# T2: BoNT/B light chain (LC), yeast displayed (Clostridium botulinum, UniProt P10844 1-441)
# T2 sequence: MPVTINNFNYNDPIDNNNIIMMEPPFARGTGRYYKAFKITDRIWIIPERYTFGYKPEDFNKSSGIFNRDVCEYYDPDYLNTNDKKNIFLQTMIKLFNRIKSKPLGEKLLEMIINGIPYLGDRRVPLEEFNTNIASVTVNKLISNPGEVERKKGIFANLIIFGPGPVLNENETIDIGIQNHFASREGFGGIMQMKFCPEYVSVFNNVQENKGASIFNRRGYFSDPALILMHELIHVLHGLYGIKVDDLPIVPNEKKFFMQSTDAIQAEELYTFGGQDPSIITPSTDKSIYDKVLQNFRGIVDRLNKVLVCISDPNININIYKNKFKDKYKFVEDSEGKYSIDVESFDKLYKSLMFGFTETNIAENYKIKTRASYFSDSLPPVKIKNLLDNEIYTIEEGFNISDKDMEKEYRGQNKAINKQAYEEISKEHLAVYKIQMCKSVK
# T3: BoNT/B translocation domain (HN), yeast displayed (Clostridium botulinum, UniProt P10844 442-857)
# T3 sequence: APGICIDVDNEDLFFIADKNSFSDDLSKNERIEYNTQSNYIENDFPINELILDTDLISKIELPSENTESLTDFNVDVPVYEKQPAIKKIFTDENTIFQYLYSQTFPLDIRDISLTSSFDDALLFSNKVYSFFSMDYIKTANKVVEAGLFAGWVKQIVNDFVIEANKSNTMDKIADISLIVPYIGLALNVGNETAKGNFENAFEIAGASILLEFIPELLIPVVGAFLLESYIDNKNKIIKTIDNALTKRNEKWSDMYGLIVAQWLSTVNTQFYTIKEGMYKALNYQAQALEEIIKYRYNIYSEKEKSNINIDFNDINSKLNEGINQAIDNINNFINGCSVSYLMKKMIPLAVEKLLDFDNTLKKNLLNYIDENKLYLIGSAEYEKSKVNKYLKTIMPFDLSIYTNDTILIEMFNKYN
# T4: BoNT/B binding domain (HC), yeast displayed (Clostridium botulinum, UniProt P10844 858-1291)
# T4 sequence: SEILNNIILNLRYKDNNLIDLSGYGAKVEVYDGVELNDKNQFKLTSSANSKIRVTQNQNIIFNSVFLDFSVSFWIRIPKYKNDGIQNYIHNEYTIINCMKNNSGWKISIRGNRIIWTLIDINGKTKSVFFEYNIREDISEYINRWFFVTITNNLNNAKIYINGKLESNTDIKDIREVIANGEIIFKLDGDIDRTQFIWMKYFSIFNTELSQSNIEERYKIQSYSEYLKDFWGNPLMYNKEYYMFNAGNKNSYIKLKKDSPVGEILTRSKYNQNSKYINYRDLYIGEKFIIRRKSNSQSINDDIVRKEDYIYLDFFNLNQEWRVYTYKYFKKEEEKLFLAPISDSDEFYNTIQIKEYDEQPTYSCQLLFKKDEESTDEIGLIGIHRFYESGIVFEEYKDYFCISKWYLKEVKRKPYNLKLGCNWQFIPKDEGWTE
# B1: 4B19.1 IgG (antibody, V domains shown)
# VH: QVQLVQSGAEVKKPGASVNVSCKASGYTFTGYYIYWVRQAPGQGLEWMGWINPNSGVTKYAQKFQGRVTMTIDTSTNTAYMELNRLRADDTAVYYCAREWTQLWSPYDYWGQGTTVTVSS
# VL: DIVLTQSPSTLSASVGDRVTISCRASRSIGWYLNWYQQRPGKAPKLLIYAASSLHNGVPSRFSGSGSGTEFTLTISSLQPDDFATYYCQQAFGFPRTFGQGTKVEIKR
# B2: 2B29 scFv (scFv)
# scFv: QVQLQESGPGLVKPSETLSLTCSVSGGSINSGTYYWTWIRQHPGKGLEWIGYIYYSGTTYYNPSLKSRVSMSVDTSKNLFSLKMNSVTAADTALYYCARGNPQYDTSGSYTGLYFDFWGQGTLVTVSSGGGGSGGGGSGGGGSQPVLTQSPSASGTPGQRVTISCSGSSSNLGSNTVSWYQQLPGTAPKLLIYSNNQRPSGVPDRFSGSKSGTSASLAISGLQSEDEADYYCATWDDSLSGGVFGGGTKLTVL
# B3: B6 Fab (Fab, V domains shown)
# VH: QVQLVQSGAEVKKPGESLVISCKASGDKDTFTSFWIAWVRQMPGKGLEWMGIIYAGDSDTRYSPSFQGHVNISVDRSTNTAYLQWSSLKASDTAMYYCARHDSRYKYFYFGMDVWGQGTTVTVSS
# VL: DVVMTQSPSSLSASVGDRITITCQAGQDISNFLNWYQQKPGKAPKLLIRDASNLETGVPSRFSGGGSGTHFTFTISSLHPEDIATYFCQQYDNLPYTFGQGTKLEIKR
# B4: 1B18 IgG (antibody, V domains shown)
# VH: EVQLVQSGGGLVQPGGSRRLSCAASGFYFNAYWMTWVRQAPGKGLEWVANINLDGTEIYYLDSVKGRFTVSRDNVKNSVFLQMSSLRVEDTAVYFCARLEWGGRNGWVSPWGQGTLVTVSS
# VL: DVVMTQSPSSVSASVGDRVTITCRASQSISSYLNWYQQRPGKAPKLLIFAASSLQSAVPSRFSGSGSGTDFTLTISSLQPEDFATYYCQQSYSTPPTFGQGTKVEIKR
# B5: B11 scFv (scFv)
# scFv: QVQLLQSAGGVVQPGRSLRLSCAASGFIFRTYGMHWVRQAPGKGLEWVAFVSSDGNNKFYSDSVKGRFTIPRDNAKNTLYLQMNSLETEDTAVYYCAKDRYPIDCSGGSCFSYGMDVWGQGTTVTVSSGGGGSGGGGSGGGGSDIVMTQSPSTLSASVGDRVTVTCRASQSINSWLAWYQQKPGKAPKLLIYEASSLESGVPSRFSGSGSGTEFTLTISSLQPDDFATYYCQQYDSYWLTFGGGTKVEIK
# B6: 2B30 scFv (scFv)
# scFv: EVQLVESGGGVVQPGRSLRLSCAASGFTFRRNAIHWVRQAPGKGLEWVAVISYDGVNKYYAASVKGRFAISRDNAKNTLFLQMNSLRPEDSAIYYCARDVSEYGDYVGHFDYWGQGTLVTVSSGGGGSGGGGSGGGGSSYELMQLPSASGTPGQRVSISCSGSSSNIGSNPVNWYQQLPGTAPKLLIYSNNHRPSGVPDRFSGSKSGTSASLAISGLQSEDEADYYCAAWDGSLNGHVVFGGGTKLTVL
# B7: B6 scFv (scFv)
# scFv: QVQLVQSGAEVKKPGESLVISCKASGDKDTFTSFWIAWVRQMPGKGLEWMGIIYAGDSDTRYSPSFQGHVNISVDRSTNTAYLQWSSLKASDTAMYYCARHDSRYKYFYFGMDVWGQGTTVTVSSGGGGSGGGGSGGGGSDVVMTQSPSSLSASVGDRITITCQAGQDISNFLNWYQQKPGKAPKLLIRDASNLETGVPSRFSGGGSGTHFTFTISSLHPEDIATYFCQQYDNLPYTFGQGTKLEIK
# Key:
# [1] = biological target: T1, Botulinum neurotoxin type B, subtype B1 …
# [2] = biological target: T2, BoNT/B light chain (LC), yeast displayed; assay: soluble scFv or IgG on yeast-displayed BoNT/B domains
# [3] = biological target: T1, Botulinum neurotoxin type B, subtype B1 …; assay: flow cytometry, yeast-displayed Fab
# [4] = biological target: T3, BoNT/B translocation domain (HN), yeast …; assay: IgG/Fab on yeast-displayed toxin domain, flow cytometry
# [5] = biological target: T2, BoNT/B light chain (LC), yeast displayed; assay: flow cytometry, mAb staining of yeast-displayed BoNT/B domains
# [6] = biological target: T4, BoNT/B binding domain (HC), yeast …; assay: as above
# [7] = biological target: T3, BoNT/B translocation domain (HN), yeast …; assay: yeast-displayed scFv
# [8] = biological target: T4, BoNT/B binding domain (HC), yeast …; assay: soluble scFv or IgG on yeast-displayed BoNT/B domains
# [9] = biological target: T2, BoNT/B light chain (LC), yeast displayed; assay: yeast-displayed scFv
binder,measurement,setting,value
B1,"fold increase in affinity, IgG against parental scFv",[1],2.25 fold
B2,binding result,[2],binds
B3,binding result,[3],binds
B4,binding result,[4],binds
same,binding result,[5],no binding
same,binding result,[6],no binding
B5,binding result,[7],binds
B6,binding result,[8],binds
B7,binding result,[9],binds
